The target of assay [1] is T1, recombinant mouse LOX-1 Fc protein (mouse, UniProt Q9EQ09 55-363, limits assumed).
T1 construct: The order Fc then LOX-1 is read from the label mFc-mLOX1; also called mFc-mLOX1; not shown: Fc part (label 'mFc')
The assay is described as follows: AlphaScreen competition: antibody against Bio-oxLDL binding to mFc-mLOX1. (In general: Alpha assays give light when donor and acceptor beads are brought close together.)

For assay [2], the target named is T1, recombinant mouse LOX-1 Fc protein. Kind of assay: AlphaScreen competition: antibody against Bio-CRP binding to mFc-mLOX1; Bio-CRP + mFc-mLOX1 competition, not Bio-oxLDL.
For assay [3] the target is unchanged. Kind of assay: AlphaScreen competition: antibody against Bio-CRP binding to mFc-mLOX1.
Assay [4] has the same target. Kind of assay: AlphaScreen competition: antibody against Bio-oxLDL binding to mFc-mLOX1. The source holds these as a separate data set.
The target in assay [5] is T2, human LOX-1 expressed on the cell surface (human, UniProt P78380 1-273).
T2 construct: whole, on cells; also called CHO/LOX-1; CHO-LOX-1
Kind of assay: flow cytometry: CRP (0-200 ug/ml) on CHO/LOX-1 cells, 60 min at 4 C, rabbit anti-CRP and labelled secondary antibody, MFI. The procedure: (§1) Cells were analyzed using a Becton Dickinson FACSCalibur® flow cytometer with CellQuest software (Becton Dickinson). Results are presented as the geometric mean fluorescence intensity (MFI).

For assay [6], the target named is T2, human LOX-1 expressed on the cell …. The assay is described as follows: flow cytometry, CRP on LOX/CHO cells. The procedure: as §1
Background: A flow cytometer gives signals particle by particle.

For assay [7] the target is unchanged. The assay is described as follows: flow cytometry, CRP on CHO/LOX-1 cells, detected with rabbit anti-CRP antibody; FACS on CHO/LOX-1 cells, 4 C. The procedure: as §1

T1 sequence (Q9EQ09 55-363 limits assumed): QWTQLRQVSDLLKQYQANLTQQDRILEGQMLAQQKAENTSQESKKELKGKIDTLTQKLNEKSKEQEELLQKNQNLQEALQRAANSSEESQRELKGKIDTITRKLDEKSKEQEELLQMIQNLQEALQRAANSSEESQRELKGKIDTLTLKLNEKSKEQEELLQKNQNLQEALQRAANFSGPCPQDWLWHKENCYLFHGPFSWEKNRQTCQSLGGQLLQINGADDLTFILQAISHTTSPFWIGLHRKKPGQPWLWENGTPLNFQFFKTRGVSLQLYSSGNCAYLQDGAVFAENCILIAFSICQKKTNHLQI

B1: LOX1-33F1 (antibody, V domains shown)
VH: QVQLKESGPGLVQPSQTLSLTCTVSGFSLTSHAVNWVRQPPGKGLEWIGAIWSGGTTDYNSGFRSRLSISRDTSKSQVLLKMNSLQTEDTAMYFCARGYDGYYYYAMDVWGQGTSVTVSS
VL: DIVMTQSPSSLAVSAGETVTINCKSSQSLLSSRNQKNYLAWYQQKPGQSPKLLIYLASTRESGVPDRFIGSGSGTDFTLTITSVQAEDLADYYCQQHYNYYTFGAGTKLELKR
notes: Rat anti-mouse LOX-1 monoclonal antibody; also called rat anti-mouse LOX-1 antibody 33F1
One may read the IC50 as the midpoint of a concentration-inhibition curve. As to B1, the IC50 stood at 0.03 µg/mL in assay [1], 0.193 µg/mL in assay [2], 0.193 µg/mL in assay [3] and 0.03 µg/mL in assay [4].

B2: purified recombinant human CRP (ligand, UniProt P02741 19-224, looked up)
chain: QTDMSRKAFVFPKESDTSYVSLKAPLTKPLKAFTVCLHFYTELSSTRGYSIFSYATKRQDNEILIFWSKDIGYSFTVGGSEILFEVPEVTVAPVHICTSWESASGIVEFWVDGKPRVRKSLKKGYTVGAEASIILGQEQDSFGGNFEGSQSLVGDIGNVNMWDFVLSPDEINTIYLGGPFSPNVLNWRALKYEVQGEVFTKPQLWP
modifications: biotin label in the AlphaScreen assays (biotin-CRP); unlabelled in ELISA and cell assays
notes: Bought protein; also called C-reactive protein; biotin-CRP
A word on the Kd: it is the free concentration of one partner at which half of the binding sites on the other are occupied at equilibrium, for simple one-to-one binding. Read a high Kd as lower affinity. In the case of B2, the Kd in assay [5] is 86.6 µg/mL; in assay [6], 747 nM; in assay [7], 86 µg/mL.

B3: LOX1-11A2 (antibody, V domains shown)
VH: EEQLVESGGGLVQPGGSLKLSCLASGFTLSNYGMNWIRQAPGKGLEWVASISSSSSYFYYADTVKGRFTISREDAKNTLNLQMTSLRSEDTALYYCARGITIAAGFTMDAWGQGTSVTVSS
VL: DIQMTQSPTSLSASLGETVSIECRASEDIYNNLAWYQQKSGKSPQLLIYYASTLQDGVPSRFSGSGSGTQFSLKISGMQPEDEGLYYCLQGSKYPRTFGGGTKLELKR
notes: Rat anti-mouse LOX-1 monoclonal antibody; also called rat anti-mouse LOX-1 antibody 11A2
In the case of B3, the concentration for half-maximal inhibition (IC50) in assay [1] and in assay [4] was 0.127 µg/mL each time.

Source of the values: patent US20090311271A1 (Pfizer, published 2009).
